Assays:
[1] = biological target: fusion glycoprotein (F) of MPV A1/6621 (metapneumovirus A1/6621); assay: cell-based or functional assay
[2] = biological target: DS-Cav1 RSV F (respiratory syncytial virus (RSV); …, UniProt P13843 26-513); assay: ELISA on RSV-F Ds-Cav1, 1 ug/ml
[3] = biological target: T1, DS-Cav1 RSV F (respiratory syncytial virus); assay: ELISA on DS-Cav1 RSV F
T1 construct: also called DC-VCav1

[4] = biological target: fusion glycoprotein (F) of the RSV used in the GFP-based neutralization assay of Table 23 (respiratory syncytial virus); assay: cell-based or functional assay
[5] = biological target: fusion glycoprotein (F) of the MPV (non-D280N) used in the GFP-based neutralization assay of Table 23 (metapneumovirus); assay: cell-based or functional assay
[6] = biological target: T2, MPV fusion glycoprotein without the D280N mutation (MPV-F D280) (metapneumovirus); assay: biolayer interferometry (BLI), rIgG1 with M428L/N434S
T2 construct: also called MPV F Non-D280N; MPV-F wt

[7] = biological target: T3, MPV fusion glycoprotein with the D280N mutation (MPV-F N280) (metapneumovirus); assay: as above
T3 construct: also called MPV F D280N; MPV-F D280N

[8] = biological target: RSV fusion glycoprotein (RSV-F) (respiratory syncytial virus); assay: as above
[9] = biological target: fusion glycoprotein (F) of RSV A GFP (Tables 41 and 42) (respiratory syncytial virus A); assay: cell-based or functional assay
[10] = biological target: fusion glycoprotein (F) of RSV B GFP (Tables 41 and 42) (respiratory syncytial virus B); assay: cell-based or functional assay
[11] = biological target: fusion glycoprotein (F) of MPV A GFP (Tables 41 and 43) (metapneumovirus A); assay: cell-based or functional assay
[12] = biological target: T4, biot-RSV-F wt (respiratory syncytial virus (RSV)); assay: BLI (Octet), biotinylated F on SA sensors, mAb 5 µg/ml
[13] = biological target: RSV F expressed on transfected Expi293F cells (respiratory syncytial virus (RSV)); assay: flow cytometry, transfected Expi293F cells, fixed and permeabilised
[14] = biological target: T4, biot-RSV-F wt; assay: BLI, SA sensor loaded with biot-RSV-F wt, mAb 5 ug/ml, 4 min association, 6 min dissociation
[15] = biological target: T5, RSV-A F (RSV A); assay: BLI
T5 construct: also called RSV F A

[16] = biological target: T6, RSV-B F (RSV B); assay: BLI
T6 construct: also called RSV F B

[17] = biological target: RSV A fusion glycoprotein (F), virus of the neutralisation assays of Tables 54 and 57 (RSV A); assay: cell-based or functional assay
[18] = biological target: T7, RSV F A, A2 Ref (RSV A, strain A2, UniProt P03420 26-574); assay: FACS, % binding to RSV F A variants
T7 construct: whole, on cells

[19] = biological target: T8, RSV F A S443P-K445N (RSV A, strain A2, UniProt P03420 26-574); assay: FACS, % binding to RSV F A variants
T8 construct: whole, on cells

[20] = biological target: T9, RSV F A G446E (RSV A, strain A2, UniProt P03420 26-574); assay: FACS, % binding to RSV F A variants
T9 construct: whole, on cells

[21] = biological target: T10, RSV F A L203I (RSV A, strain A2, UniProt P03420 26-574); assay: FACS, % binding to RSV F A variants
T10 construct: whole, on cells

[22] = biological target: T11, RSV F B, B Ref (RSV B); assay: FACS, % binding to RSV F B variants
T11 construct: whole, on cells

[23] = biological target: T12, RSV F B K68N-N201S (RSV B); assay: FACS, % binding to RSV F B variants
T12 construct: whole, on cells

[24] = biological target: T13, RSV F B K68N-N208S (RSV B); assay: FACS, % binding to RSV F B variants
T13 construct: whole, on cells

[25] = biological target: T14, RSV F B N201S (RSV B); assay: FACS, % binding to RSV F B variants
T14 construct: whole, on cells

[26] = biological target: T15, RSV F B N208D (RSV B); assay: FACS, % binding to RSV F B variants
T15 construct: whole, on cells

[27] = biological target: T16, RSV F B N208S (RSV B); assay: FACS, % binding to RSV F B variants
T16 construct: whole, on cells; also called mutant N208S

[28] = biological target: T17, RSV F B S443P (RSV B); assay: FACS, % binding to RSV F B variants
T17 construct: whole, on cells; also called mutant S443P

| Binder | Kd [15] | Kd [16] | IC50, neutralization of RSVA [17] | % binding [18] | % binding [19] | % binding [20] | % binding [21] | % binding [22] | % binding [23] | % binding [24] | % binding [25] | % binding [26] | % binding [27] | % binding [28] | further results |
| --- | --- | --- | --- | --- | --- | --- | --- | --- | --- | --- | --- | --- | --- | --- | --- |
| MPH12-v1 (VH C111/C112.2 variant of Tables 18 and 19) (antibody, V domains shown) VH: QVQLVESGGGLVKPGGSLRLSCVASGFTFSGFYMKWIRQAPGKGLEWVSSISASGSYTNYADSVEGRFTVSRDNAKNSLFLLMSSLRAEDTAVYYCARGDSYSGASASHGEFFHKWGQGTLVTVSS VL: QSVLTQPPSVSGAPGQRVTISCTGSDSNIGADFDVHWYQQLPGTAPKLLIYGNINRPSGVPDRFSGSRSGTSAFLAITRLQAEDEADYYCQSYDRSLHYVFGAGTKVTVL | – | – | – | – | – | – | – | – | – | – | – | – | – | – | MPV IC50 (nM), neutralization of MPV A1/6621 [1]: 5.87 nM; EC50 (read off the curve) [2]: ~100 ng/mL |
| MPH12-v28 (VH-FRGL-S63A/VL-S26A) (antibody, V domains shown, also called MPH12 VH-FRGL-S63A / MPH12 VL-S26A) VH: QVQLVESGGGLVKPGGSLRLSCAASGFTFSGFYMKWIRQAPGKGLEWVSSISASGSYTNYADAVEGRFTISRDNAKNSLYLQMNSLRAEDTAVYYCARGDSYCGASACHGEFFHKWGQGTLVTVSS VL: QSVLTQPPSVSGAPGQRVTISCTGSDANIGADFDVHWYQQLPGTAPKLLIYGNINRPSGVPDRFSGSRSGTSAFLAITRLQAEDEADYYCQSYDRSLHYVFGAGTKVTVL | – | – | – | – | – | – | – | – | – | – | – | – | – | – | EC50 [3]: 0.0322 µg/mL; RSV IC 50 (ng/mL), GFP-based in vitro neutralization [4]: 59.4 ng/mL; MPV IC50 (ng/mL), GFP-based in vitro neutralization [5]: 26.3 ng/mL; Kd [6]: 0.045 nM; Kd [7]: 0.74 nM; Kd [8]: 0.38 nM |
| MPH12-v16 (VH-FRGL-S63A/VL-D25S) (antibody, V domains shown, also called MPH12 VH-FRGL-S63A / MPH12 VL-D25S) VH: QVQLVESGGGLVKPGGSLRLSCAASGFTFSGFYMKWIRQAPGKGLEWVSSISASGSYTNYADAVEGRFTISRDNAKNSLYLQMNSLRAEDTAVYYCARGDSYCGASACHGEFFHKWGQGTLVTVSS VL: QSVLTQPPSVSGAPGQRVTISCTGSSSNIGADFDVHWYQQLPGTAPKLLIYGNINRPSGVPDRFSGSRSGTSAFLAITRLQAEDEADYYCQSYDRSLHYVFGAGTKVTVL | – | – | – | – | – | – | – | – | – | – | – | – | – | – | EC50 [3]: 0.0156 µg/mL; RSV IC 50 (ng/mL), GFP-based in vitro neutralization [4]: 50.3 ng/mL; MPV IC50 (ng/mL), GFP-based in vitro neutralization [5]: 26.8 ng/mL; Kd [6]: 0.038 nM; Kd [7]: 0.54 nM; Kd [8]: 0.41 nM |
| MPH12-v2 (VH C111/C112.2 variant of Tables 18 and 19) (antibody, V domains shown) VH: QVQLVESGGGLVKPGGSLRLSCVASGFTFSGFYMKWIRQAPGKGLEWVSSISASGSYTNYADSVEGRFTVSRDNAKNSLFLLMSSLRAEDTAVYYCARGDSYAGASAAHGEFFHKWGQGTLVTVSS VL: QSVLTQPPSVSGAPGQRVTISCTGSDSNIGADFDVHWYQQLPGTAPKLLIYGNINRPSGVPDRFSGSRSGTSAFLAITRLQAEDEADYYCQSYDRSLHYVFGAGTKVTVL | – | – | – | – | – | – | – | – | – | – | – | – | – | – | MPV IC50 (nM), neutralization of MPV A1/6621 [1]: 0.552 nM; EC50 (read off the curve) [2]: ~100 ng/mL |
| MPK190-v1.1-rIgG1m17,1-LS (antibody, V domains shown, also called MPK190-v1.1-rIgG1-LS) VH: QVQLVESGGGLVKPGGSLTLSCAASGFSISGYGMNWVRQAPGRGLEWVASISASSTYIYYADSMKGRFTISRDNGKTSLYLQMKSLRAEDTAVYYCARAPIEPPYFDLWGRGTLVTVSS VL: QSVLTQPPSVSGAPGQRVTISCTGSNSNIGAGYDVHWYQHLPGKAPKVLIYGNNNRPSVVPDRFSGSNSGASASLAISGLQAEDEADYFCQSYDRRLSGPIFGGGTKLTVL | – | – | – | – | – | – | – | – | – | – | – | – | – | – | IC50 (ng/ml), RSV A GFP neutralization [9]: 3.54 ng/mL; IC50 (ng/ml), RSV B GFP neutralization [10]: 3.39 ng/mL; IC50 (ng/ml), MPV A GFP neutralization [11]: 4.03 ng/mL; Kd [12]: < 1 pM; Binding (FACS) relative to parental mAb MPK190-v1.1 [13]: 1; Kd [14]: < 1 pM |
| MPK190-v1.3-rIgG1m17,1-LS (antibody, V domains shown, also called MPK190-v1.3-rIgG1-LS) VH: QVQLVESGGGLVKPGGSLTLSCAASGFSISGYGMNWVRQAPGRGLEWVASISASSTYIYYADSMKGRFTISRDNGKTSLYLQMKSLRAEDTAVYYCARAPIEPPYFDLWGRGTLVTVSS VL: QSVLTQPPSVSGAPGQRVTISCTGSSSNIGAGYDVHWYQHLPGKAPKVLIYGNTNRPSVVPDRFSGSNSGASASLAISGLQAEDEADYFCQSYDRRLSGPIFGGGTKLTVLG | – | – | – | – | – | – | – | – | – | – | – | – | – | – | IC50 (ng/ml), RSV A GFP neutralization [9]: 3.18 ng/mL; IC50 (ng/ml), RSV B GFP neutralization [10]: 2.38 ng/mL; IC50 (ng/ml), MPV A GFP neutralization [11]: 5.99 ng/mL; Kd [12]: < 1 pM; Binding (FACS) relative to parental mAb MPK190-v1.1 [13]: 0.9; Kd [14]: < 1 pM |
| MPK176-v1.3 (antibody, V domains shown) VH: QVQLVQSGAEVKKPGASVRVSCKASGYTLTAYGISWVRQAPGQGLEWMGWISPKHGNTHYAQRFQGRVTMTTDTSTSTAYMELRSLRPDDTAVYFCAREGVDIMAVPWYFDYWGQGTLVAVSS VL: SYVLTQPPSVSVAPGQTARISCGGNNIGSKSVHWYQQKPGQAPVVVVYDDSKRPSGIPERFSGSNSGNTATLTISGVEAGDEADYFCQVWDSATDHWVFGGGTKLTVL | 0.136 nM | 0.0256 nM | 3.94 ng/mL | 78.1% | 0.036% | 0.017% | 56.1% | 39.9% | 60% | 57.9% | 60.2% | 53.6% | 60.4% | 33.8% | – |
| MPK201-v1.2 (antibody, V domains shown) VH: EVQLVQSGAEVKKPGESLKISCQGSGYSFINYWIGWVRQKPGKGLEWMGIIYPFDSETKYSPSFQGHVTFSADKSINTAYVQWSSLRASDTAMYYCARFTFGLAVTTADVSGEGQAFEIWGQGTMVTVSS VL: QIVMMQSPATLSVSPGERATLSCRASQSVAGNLAWYQQRPGQAPRLLVYGASTRASGVPARFSGSGSETEFTLTISSLQSEDFAVYYCHHYSDLPQAFGQGTRLDIK | 0.211 nM | 0.161 nM | 2.88 ng/mL | 66.9% | 36% | 29% | 40% | 61.3% | 47.3% | 12.1% | 47.7% | 0.015% | 14.4% | 45.8% | – |
| MPK201-v4.1 (antibody, V domains shown) VH: QVQLVQSGAEVKKPGESLKISCQGSGYSFISYWIGWVRQKPGKGLEWMGIIYPFDSETKYSPSFQGHVTFSADKSINTAYVQWSSLRASDTAMYYCARFTFGLAVTTADVSGEGQAFEIWGQGTMVTVSS VL: EIVMMQSPATLSVSPGERATLSCRASQSVAGNLAWYQQRPGQAPRLLVYGASTRASGVPARFSGSGSETEFTLTISSLQSEDFAVYYCHHYSDWPQAFGQGTRLDIK | 0.292 nM | 0.552 nM | 4.35 ng/mL | 54.1% | 2700% | 18% | 13.1% | 51.9% | 30% | 0.048% | 33% | 0.018% | 0.016% | 31.5% | – |
